B1: Als3 (agglutinin-like sequence protein 3), isolated from the surface of C. albicans (natural protein)
chain: KTITGVFNSFNSLTWSNAATYNYKGPGTPTWNAVLGWSLDGTSASPGDTFTLNMPCVFKFTTSQTSVDLTAHGVKYATCQFQAGEEFMTFSTLTCTVSNTLTPSIKALGTVTLPLAFNVGGTGSSVDLEDSKCFTAGTNTVTFNDGGKKISINVDFERSNVDPKGYLTDSRVIPSLNKVSTLFVAPQCANGYTSGTMGFANTYGDVQIDCSNIHVGITKGLNDWNYPVSSESFSYTKTCSSNGIFITYKNVPAGYRPFVDAYISATDVNSYTLSYANEYTCAGGYWQRAPFTLRWTGYRNSDAGSNGIVIVATTRTVTDSTTAVTTLPFDPNRDKTKTIEILKPIPTTTITTSYVGVTTSYSTKTAPIGETATVIVDIPYHTTTTVTSKWTGTITSTTTHTNPTDSIDTVIVQVPSPNPTVTTTEYWSQSFATTTTITGPPGNTDTVLIREPPNHTVTTTEYWSESYTTTSTFTAPPGGTDSVIIKEPPNPTVTTTEYWSESYTTTTTVTAPPGGTDTVIIREPPNHTVTTTEYWSQSYTTTTTVIAPPGGTDSVIIREPPNPTVTTTEYWSQSYATTTTITAPPGETDTVLIREPPNHTVTTTEYWSQSYATTTTITAPPGETDTVLIREPPNHTVTTTEYWSQSYTTTTTVIAPPGGTDSVIIKEPPNPTVTTTEYWSQSYATTTTITAPPGETDTVLIREPPNHTVTTTEYWSQSYATTTTITAPPGETDTVLIREPPNHTVTTTEYWSQSFATTTTVTAPPGGTDTVIIREPPNHTVTTTEYWSQSFATTTTIIAPPGETDTVLIREPPNPTVTTTEYWSQSYTTATTVTAPPGGTDTVIIYDTMSSSEISSFSRPHYTNHTTLWSTTWVIETKTITETSCEGDKGCSWVSVSTRIVTIPNNIETPMVTNTVDTTTTESTLQSPSGIFSESGVSVETESSTFTTAQTNPSVPTTESEVVFTTKGNNGNGPYESPSTNVKSSMDENSEFTTSTAASTSTDIENETIATTGSVEASSPIISSSADETTTVTTTAESTSVIEQQTNNNGGGNAPSATSTSSPSTTTTANSDSVITSTTSTNQSQSQSNSDTQQTTLSQQMTSSLVSLHMLTTFDGS
notes: source: purified from C. albicans ATCC 10231 hyphae cell wall extract (β-1,3-glucanase and 2-mercaptoethanol; MonoQ, Superdex-200)

Legend:
Conditions in all cases: both partners purified
histone H4 = histone H4 (human, UniProt P62805 1-103); test: ELISA-like microplate ligand-binding assay
[1] = target: B1; test: SPR
lactotransferrin (LF) = target: T1, lactotransferrin (LF) (human, UniProt P02788 20-710, NHS-fluorescein label in flow cytometry; sulfo-SBED crosslinker in the cross-linking experiment); test: SPR
T1 construct: also called lactoferrin; source: bought: Sigma
T1 sequence (P02788 20-710): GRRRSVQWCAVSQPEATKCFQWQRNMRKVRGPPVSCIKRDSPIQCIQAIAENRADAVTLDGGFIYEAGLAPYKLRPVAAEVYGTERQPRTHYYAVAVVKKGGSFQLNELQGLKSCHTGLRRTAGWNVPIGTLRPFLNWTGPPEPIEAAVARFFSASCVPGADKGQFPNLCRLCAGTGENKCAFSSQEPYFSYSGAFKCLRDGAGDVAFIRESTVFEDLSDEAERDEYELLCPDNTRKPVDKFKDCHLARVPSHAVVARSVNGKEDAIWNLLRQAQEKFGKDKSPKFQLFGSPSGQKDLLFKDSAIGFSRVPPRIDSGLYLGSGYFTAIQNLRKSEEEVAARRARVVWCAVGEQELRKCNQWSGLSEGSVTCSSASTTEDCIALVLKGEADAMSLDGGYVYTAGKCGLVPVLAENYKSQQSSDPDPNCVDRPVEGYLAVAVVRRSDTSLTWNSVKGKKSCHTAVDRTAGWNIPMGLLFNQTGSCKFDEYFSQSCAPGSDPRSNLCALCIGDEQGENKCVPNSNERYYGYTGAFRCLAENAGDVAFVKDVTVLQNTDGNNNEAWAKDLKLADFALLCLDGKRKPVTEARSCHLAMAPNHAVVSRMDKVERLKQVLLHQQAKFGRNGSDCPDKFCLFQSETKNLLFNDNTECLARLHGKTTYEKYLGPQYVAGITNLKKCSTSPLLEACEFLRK

Binder	Kd (histone H4)	further results
enolase (Eno1) (enzyme, source: purified from the cytosolic fraction of C. albicans cells (MonoQ, MonoS); for cross-linking: endogenous, in the cell wall protein extract of C. albicans hyphae) MSYATKIHARYVYDSRGNPTVEVDFTTDKGLFRSIVPSGASTGVHEALELRDGDKSKWLGKGVLKAVANVNDIIAPALIKAKIDVVDQAKIDEFLLSLDGTPNKSKLGANAILGVSLAAANAAAAAQGIPLYKHIANISNAKKGKFVLPVPFQNVLNGGSHAGGALAFQEFMIAPTGVSTFSEALRIGSEVYHNLKSLTKKKYGQSAGNVGDEGGVAPDIKTPKEALDLIMDAIDKAGYKGKVGIAMDVASSEFYKDGKYDLDFKNPESDPSKWLSGPQLADLYEQLISEYPIVSIEDPFAEDDWDAWVHFFERVGDKIQIVGDDLTVTNPTRIKTAIEKKAANALLLKVNQIGTLTESIQAANDSYAAGWGVMVSHRSGETEDTFIADLSVGLRSGQIKTGAPARSERLAKLNQILRIEEELGSEAIYAGKDFQKASQL	384 ± 130 nM	–
B1	820 ± 330 nM	–
human neutrophil elastase (HNE) (enzyme, UniProt P08246 30-267, looked up, sulfo-SBED crosslinker in the cross-linking experiment; in flow cytometry preincubated or not with 10 µM N-(Methoxysuccinyl)-Ala-Ala-Pro-Val-chloromethyl ketone, source: bought: Biocentrum (Kraków, Poland)) IVGGRRARPHAWPFMVSLQLRGGHFCGATLIAPNFVMSAAHCVANVNVRAVRVVLGAHNLSRREPTRQVFAVQRIFENGYDPVNLLNDIVILQLNGSATINANVQVAQLPAQGRRLGNGVQCLAMGWGLLGRNRGIASVLQELNVTVVTSLCRRSNVCTLVRGRQAGVCFGDSGSPLVCNGLIHGIASFVRGGCASGLYPDAFAPVAQFVNWIDSIIQRSEDNPCPHPRDPDPASRTH	–	Kd [1]: 65 ± 5.3 nM
triosephosphate isomerase 1 (Tpi1) (enzyme, UniProt Q9P940 1-248, looked up, source: purified from C. albicans ATCC 10231 hyphae cell wall extract (MonoQ, Superdex-200); for cross-linking: endogenous, in that extract) MARQFFVGGNFKANGTKQQITSIIDNLNKADLPKDVEVVICPPALYLGLAVEQNKQPTVAIGAQNVFDKSCGAFTGETCASQILDVGASWTLTGHSERRTIIKESDEFIAEKTKFALDTGVKVILCIGETLEERKGGVTLDVCARQLDAVSKIVSDWSNIVVAYEPVWAIGTGLAATPEDAEETHKGIRAHLAKSIGAEQAEKTRILYGGSVNGKNAKDFKDKANVDGFLVGGASLKPEFVDIIKSRL	–	Kd (lactotransferrin (LF)): 163 ± 0.2 nM
Phosphoglycerate mutase 1 (Gpm1), recombinant (enzyme) MPKLVLVRHGQSEWNEKNLFTGWVDVRLSETGQKEAKRAGELLKEAGINVDVLHTSKLSRAIQTANIALDAADQLYVPVKRSWRLNERHYGALQGKDKAQTLEAYGQEKFQIWRRSFDVPPPKIDPKDEYSQVGDRRYADVDPAVVPLTESLALVIDRLLPYWQDEIAGDLLAGKVVLIAAHGNSLRALVKHLDNISDEDIAGLNIPTGIPLVYELDENLKPTKPSYYLDPEAAAAGAAAVAAQGQKK	1900 ± 414 nM	–

Source: paper PMC8534323, “Proteinous Components of Neutrophil Extracellular Traps Are Arrested by the Cell Wall Proteins of Candida albicans during Fungal Infection, and Can Be Used in the Host Invasion” (Cells, 2021)
